Tests used:
[1] = target: Chimeric protein #1 (mPro-hCat-mC-term-mmh) (mouse; human) (UniProt Q80W65); assay: ELISA, coated mAb, 1.2 nM antigen
[2] = target: Chimeric protein #2 (hPro-mCat-mC-term-mmh) (human; mouse) (UniProt Q80W65); assay: ELISA, coated mAb, 1.2 nM antigen
mouse PCSK9-mmh (mouse) = mouse PCSK9-mmh (mouse) (UniProt Q80W65); assay: ELISA, coated mAb, 1.2 nM antigen
[3] = target: Human PCSK9-myc-myc-his (human) (UniProt Q8NBP7); assay: SPR, mAb captured on anti-mouse IgG, 25C
[4] = target: Human PCSK9-myc-myc-his (human) (UniProt Q8NBP7); assay: SPR, mAb captured on anti-mouse IgG, 37C
[5] = target: Chimeric protein #3 (mPro-mCat-hC-term-mmh) (mouse; human); assay: ELISA, coated mAb, 1.2 nM antigen (++ OD>1.0; + OD 0.4-1.0)
[6] = target: Human PCSK9-myc-myc-his (human) (UniProt Q8NBP7); assay: as above
[7] = target: hPCSK9(D374Y)-mmh (human) (UniProt Q8NBP7); assay: as above

OD [1] | OD [2] | OD (mouse PCSK9-mmh (mouse)) | Kd [3] | T1/2 [3] | Kd [4] | T1/2 [4] | OD [5] | OD [6] | OD [7] | Binder
< 0.4 od | < 0.4 od | < 0.4 od | 6.4 nM | 30 min | 7.5 nM | 14 min | 0.4 to 1 od | > 1 od | > 1 od | H1M498 (antibody, from a related filing, V domains shown) VH: EVQLVESGGGLVKPGGSLRLSCAASGFTFSSYSMDWVRQAPGKGLEWVSSISSSSSYIYYADSVKGRFTISRDTAKNSLYLQMNSLRDEDTAVYYCAREGSSRLFDYWGQGTLVTVSS VL: DIQMTQSPSTLSASVGDRVTITCRASQSISSWLAWYQQRPGKAPKLLIYKASSLEGGVPSRFSGSGSGTEFTLTISSLQPEDFATYYCQQYNSYWYTFGQGTKLEIK
< 0.4 od | < 0.4 od | < 0.4 od | 0.44 nM | 222 min | 7.5 nM | 19 min | > 1 od | > 1 od | > 1 od | H1M495 (antibody, from a related filing, V domains shown) VH: EVQLVESGGGLVQPGRSLRLSCAASGFTFDDYAMHWVRQAPGKGLEWVSGINWNSGSIGYADSVKGRFTISRDNAKHSLYLQMNSLRPEDTALYYCVKEVTTGYYYGMDVWGQGTTVTVSS VL: DIQLTQSPSFLSASVGDRVTITCWASQGISSYLAWYQKKPGKAPNLLIYDASTLQSGVPSRFSGSGSGTEFTLTLSSLQPEDFATYYCQQLNIYPFTFGPGTKVDIK
